B1: Protein Bop (Homo sapiens), Q7L3V2 (parent)
chain: MPRGRCRQQGPRIPIWAAANYANAHPWQQMDKASPGVAYTPLVDPWIERPCCGDTVCVRTTMEQKSTASGTCGGKPAERGPLAGHMPSSRPHRVDFCWVPGSDPGTFDGSPWLLDRFLAQLGDYMSFHFEHYQDNISRVCEILRRLTGRAQAWAAPYLDGDLPLPDDYELFCQDLKEVVQDPNSFAEYHAVVTCPLPLASSQLPVAPQLPVVRQYLARFLEGLALDMGTAPRSLPAAMATPAVSGSNSVSRSALFEQQLTKESTPGPKEPPVLPSSTCSSKPGPVEPASSQPEEAAPTPVPRLSESANPPAQRPDPAHPGGPKPQKTEEEVLETEGDQEVSLGTPQEVVEAPETPGEPPLSPGF

Variants of: B1
Settings: with vdac1_human VDAC1, P21796
vdac1_human VDAC1, P21796, sequence (P21796 whole entry): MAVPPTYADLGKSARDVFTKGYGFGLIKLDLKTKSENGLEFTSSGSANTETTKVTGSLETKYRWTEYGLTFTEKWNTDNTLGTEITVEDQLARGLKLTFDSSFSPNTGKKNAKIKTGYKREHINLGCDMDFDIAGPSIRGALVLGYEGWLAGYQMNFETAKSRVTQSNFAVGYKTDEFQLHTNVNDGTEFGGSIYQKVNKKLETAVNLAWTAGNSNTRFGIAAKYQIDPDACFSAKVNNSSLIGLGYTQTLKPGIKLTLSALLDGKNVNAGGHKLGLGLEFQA

| effect of a mutation on the interaction | Variant |
| --- | --- |
| decreasing interaction strength | MPRGRCRQQGPRIPIWAAANYANAHPWQQMDKASPGVAYTPLVDPWIERPCCGDTVCVRTTMEQKSTASGTCGGKPAERGPLAGHMPSSRPHRVDFCWVPGSDPGTFDGSPWLLDRFAAQLGDYMSFHFEHYQDNISRVCEILRRLTGRAQAWAAPYLDGDLPLPDDYELFCQDLKEVVQDPNSFAEYHAVVTCPLPLASSQLPVAPQLPVVRQYLARFLEGLALDMGTAPRSLPAAMATPAVSGSNSVSRSALFEQQLTKESTPGPKEPPVLPSSTCSSKPGPVEPASSQPEEAAPTPVPRLSESANPPAQRPDPAHPGGPKPQKTEEEVLETEGDQEVSLGTPQEVVEAPETPGEPPLSPGF [L118A] |

From IntAct's records for PubMed 23055042
